Source: article PMC3483115

Target: TRPV1-CT44 (TRPV1 C-terminal residues 759–802) (rat) (UniProt O35433)
Test: other fluorescence titration

Sequence of TRPV1-CT44 (TRPV1 C-terminal residues 759–802) (rat) (O35433 759-802): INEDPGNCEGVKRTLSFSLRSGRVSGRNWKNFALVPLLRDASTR

stoichiometry N: 1
Substance: calmodulin (CaM), wild type (from UniProt P0DP23 1-149) (natural protein)
